# Laboratory results published in US20030194400.
# T1: soluble Tissue Factor extracellular domain TF1-218
# T1 chain: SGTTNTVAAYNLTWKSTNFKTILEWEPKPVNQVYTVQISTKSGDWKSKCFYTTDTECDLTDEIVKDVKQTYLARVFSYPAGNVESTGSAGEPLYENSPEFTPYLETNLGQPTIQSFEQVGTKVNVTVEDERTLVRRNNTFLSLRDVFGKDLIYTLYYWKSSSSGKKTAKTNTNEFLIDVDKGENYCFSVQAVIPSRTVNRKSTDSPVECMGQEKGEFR
# B1: Factor VIIa (protein)
# chain: ANAFLEELRPGSLERECKEEQCSFEEAREIFKDAERTKLFWISYSDGDQCASSPCQNGGSCKDQLQSYICFCLPAFEGRNCETHKDDQLICVNENGGCEQYCSDHTGTKRSCRCHEGYSLLADGVSCTPTVEYPCGKIPILEKRNASKPQGRIVGGKVCPKGECPWQVLLLVNGAQLCGGTLINTIWVVSAAHCFDKIKNWRNLIAVLGEHDLSEHDGDEQSRRVAQVIIPSTYVPGTTNHDIALLRLHQPVVLTDHVVPLCLPERTFSERTLAFVRFSLVSGWGQLLDRGATALELMVLNVPRLMTQDCLQQSRKVGDSPNITEYMFCAGYSDGSKDSCKGDSGGPHATHYRGTWYLTGIVSWGQGCATVGHFGVYTRVSQYIEWLQKLMRSEPRPGVLLRAPFP
# Legend:
# [1] = target: fibronectin-Tissue Factor (Fn-TF) fusion protein
# [2] = target: T1, soluble Tissue Factor extracellular …
protein,measurement,setting,value
B1,Factor VIIa amidolytic activity (chromozym t-PA hydrolysis),[1],Very little difference in amidolytic activity is discernable for Tissue Factor and Fn-TF except at high concentrations
same,Factor VIIa amidolytic activity (chromozym t-PA hydrolysis),[2],Very little difference in amidolytic activity is discernable for Tissue Factor and Fn-TF except at high concentrations
